Data: patent US7888291B2, “Substrates and assays for β-secretase” (Elan Pharmaceuticals, Inc., priority 2000, dated 2011)
Non-standard residues stand in square brackets, D forms with d. No end group written: not given here. Sta = CC(C)C[C@H](N)[C@@H](O)CC(=O)O

Key:
[1] = biological target: T1, Hu-Asp (Homo sapiens, UniProt P56817); assay: Hu-Asp cleavage assay variation for substrates of SEQ ID NO:190 and 191 (Vmax, Km, pH, ionic strength, DMSO); assay type: biochemical; parameters: made in house; host or cells: High Five insect cells; conditions: 100 mM NaOAc/HOAc, pH 4.5 (stated for SEQ ID NO:190 and 191)
T1 sequence (P56817 46-501): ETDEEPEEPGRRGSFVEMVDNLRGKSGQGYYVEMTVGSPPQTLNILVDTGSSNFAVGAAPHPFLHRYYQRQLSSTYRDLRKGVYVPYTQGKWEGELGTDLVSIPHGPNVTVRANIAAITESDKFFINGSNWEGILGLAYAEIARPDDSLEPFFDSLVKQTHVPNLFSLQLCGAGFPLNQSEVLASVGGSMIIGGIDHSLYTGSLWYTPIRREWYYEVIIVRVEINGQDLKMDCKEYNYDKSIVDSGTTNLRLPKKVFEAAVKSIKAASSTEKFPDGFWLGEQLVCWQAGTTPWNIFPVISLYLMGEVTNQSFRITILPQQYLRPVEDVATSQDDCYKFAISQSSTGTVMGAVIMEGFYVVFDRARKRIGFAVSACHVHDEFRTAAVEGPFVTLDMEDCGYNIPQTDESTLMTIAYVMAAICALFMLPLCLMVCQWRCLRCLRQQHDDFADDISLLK
Method: In the substrates SEISY-EVEFRWKK (SEQ ID NO:190) and GLTNIKTEEISEISY-EVEFRWKK (SEQ ID NO:191), the 10 N-terminal amino acids of peptide SEISY-EVEFRWKK (SEQ ID NO:190) are identical to those of peptide SEISY-EVEFR (SEQ ID NO:152). The difference between the two peptide is the presence of a tryptophan and two lysines in the peptide of SEQ ID NO:190. […] Hu-Asp activity was tested towards SEISY-EVEFRWKK (SEQ ID NO:190) and GLTNIKTEEISEISY-EVEFRWKK (SEQ ID NO:191). […] The activity difference between the two peptides was particularly dramatic in the pH range 4.0-4.6. Specifically, it was 6.3-4.8 times higher for the peptide of SEQ ID NO:191. […] Both peptides were inhibited by increasing concentrations of DMSO. […] As expected, the N-terminus elongation increases activity. […] The development of the substrates of SEQ ID NO:190 and SEQ ID NO:191 is of great value in Hu-Asp inhibition studies and in studies concerning recombinant Hu-Asp refolding from E. coli inclusion bodies.
In a variation of the above assay for substrates of SEQ ID NO:190 or its N-terminally extended version depicted in SEQ ID NO:191), the substrates are incubated with the enzyme to a final reaction solution volume of 200 μl (although reaction mixtures of 50-100 μl also were used) composed of 5-50 μM peptide substrate, 1-10 nM enzyme, 0.1. M sodium acetate buffer at pH 4 to 5. […]

[2] = Solubility of peptide substrate; assay type: physicochemical; conditions: effect of the addition of two lysines
[3] = biological target: T1, Hu-Asp; assay: Inhibition of HuAsp enzyme activity by statine-containing peptide; assay type: biochemical
[4] = system: HEK-293 cells; assay: ELISA of secreted Aβ40 and Aβ42 in medium of transfected HEK-293 cells; assay type: cell-based, human; conditions: medium of the transfected HEK-293 cells
Method: As one indicator of APP processing, levels of secreted Aβ from the medium of the transfected HEK-293 cells were measured. Measurements were by ELISA using antibody 6E10 (Syntek, St. Louis, Mo.) to capture Aβ and antibody 208 for Aβ40 and antibody 165 for Ap42. […] Using additional constructs in peptide activity assays, it was determined that if an Asn residue was substituted in place of a Ser to give SEVNY-↓-EVEFR (SEQ ID NO:170), this peptide has an activity that is only ⅕ than that of SEVSY-↓-EVEFR (SEQ ID NO:141; Table 4). This observation reaffirms that amino acid optimization at a certain position depends on the rest of the substrate sequence.

[5] = biological target: T2, Hu-Asp2 (Homo sapiens, UniProt P56817); assay: Hu-Asp2 peptide substrate cleavage assay (HPLC quantitation of cleavage products); assay type: biochemical
T2 construct: made in house; host or cells: High Five insect cells
T2 sequence (P56817 46-501): as above

[6] = biological target: T2, Hu-Asp2; assay: as above; assay type: biochemical
Method: The peptides listed in Table 2 were designed, synthesized, and tested for activity as substrates for Hu-Asp2. 200 μM of each test substrate was incubated with 210 nM Hu-Asp2 enzyme at pH 4.5 at 37° C. for 3 hours. Of course it should be understood that these are merely exemplary assay conditions, and those of skill in the art will be able to vary these conditions and yet still provide appropriate Hu-Asp2 activity. For example, it is envisioned that the assays may be conducted at a pH range of from between about 4.0 to about 7.0. The amount of enzyme added to a given reaction mixture may also be varied and those of skill in the art will be able to perform assays defining the optimal enzyme concentrations necessary for a given assay, as such 150 nm; 200 nm; 250 nm; 300 nm or more or less enzyme may be added. Substrate concentration in those also may be varied such that an assay may use 100, 150 μM, 200 μM, 250 μM, 300 μM, 350 μM or more or less of any given; substrate. It may be that one substrate produces an optimum activity at one concentration whereas another substrate is needed to be present at a different concentration to produce an optimum cleavage rate. However, such optimizations of enzyme assay conditions is well within the skill of those in the art and will not require undue experimentation.
In an exemplary assay to determine the cleavage of the substrates of the present invention, Asp2 was prepared from High Five™ insect cells. Generally, the assasy are run in solution at acidic pH (4.0 to 5.0), at 25-37° C. in the presence of nM or sub-nanomolar enzyme. After a suitable period of incubation the reaction is stopped at a desired time by addition of 4% trifluoracetic acid (TFA). Substrates and products are separated using reverse phase HPLC. The disappearance of the substrates and the appearance of the products are monitored by continuous measurement of the absorbance of the effluent at […]. Furthermore, if the peptide comprises a tryptophan residue, the monitoring may additionally or alternatively involve continuous monitoring of fluorescence of tryptophan fluorescence (excitation at 280 nm, emission at […]) of the effluent.
In a typical assay, 210 nM enzyme and 200 μM substrate were incubated in 0.2 M sodium acetate at pH 4.5 in 100 μl volume at 37° C. for 1 to 3 hours. The assay was stopped by the addition of 50 μl 4% TFA to lower the pH below the active range of the enzyme. Subsequently, 100 μl of this mixture was injected into a Hewlett Packard Model 1090 HPLC equipped with a Vydac column (4.6 mm i.d.×150 mm, 5 μm) pre-equilibrated with 95% A (0.15% TFA in water), 5% B (0.15% TFA in acetonitrile). The constituents were then eluted from the column with the following linear gradients: 0-15 min: 5-50% B; 15-17 min: 50-100% B; 17-20 min: 100-5% B; 20-22 min: 5% B). The cleavage products were then quantitated using an enhanced integrator. […]

## GLTNIKTEEISEISYEVEFRWKK [SEQ ID NO:191, GLTNIKTEEISEISY-EVEFRWKK]
[1]
  Km: 43.1 µM

## SEISYEVEFRWKK [SEQ ID NO:190, SEISY-EVEFRWKK]
[2]
  solubility: increased solubility
[1]
  Km: 86.7 µM

## SEVN[Sta]VAEFRGGC [statine-containing peptide]
[3]
  inhibition of HuAsp enzyme activity: shown to inhibit HuAsp enzyme activity

## SEVSY-↓-EVEFR (SEVSYEVEFR)
[4]
  production of secreted Aβ40 and Aβ42: easily measurable levels of Aβ
[5]; Table 4
  activity compared with Swedish mutant peptide (SEQ ID NO:19): 1.4 fold
[5]; Table 4, 200 nM enzyme, 200 μM substrate, pH 4.5, 37° C., 1 hr, SEQ ID NO:19 = 100
  Relative rate of Cleavage: 141.8
[5]; Table 5, 2 nM enzyme, 50 μM substrate, 25 mM Sodium acetate, pH 4.4, 37° C., 2 hr
  Cleavage Activity: 0.16 µmol/min/mg
[5]; Table 5, 2 nM enzyme, 50 μM substrate, 25 mM Sodium acetate, pH 4.4, 37° C., 2 hr, SEQ ID NO:141 = 100
  Relative rate of Cleavage: 100
[6]
  activity as substrate of Hu-Asp2 (in words): activity superior to the Swedish mutation
